{
  "source": "the supplement of paper PMC12764529",
  "note": "± gives the half width of the 95% confidence interval.",
  "data": [
    {"assay": "folding stability dG unfold from chymotrypsin proteolysis; higher = more stable", "summary_of_the_method": "(§1)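 How resistant each design was to proteolysis was captured as K50, inferred by Bayesian fitting of sequencing counts. Unfolding free energy was then derived relative to a sequence-predicted unfolded-state K50 and a shared folded-state K50, per protease or combined. Digestion used trypsin and chymotrypsin at 11 threefold-diluted concentrations plus a no-protease condition, on mini-proteins under 80 residues without cysteine in a PA-tagged cDNA display construct. Designs were kept only when AlphaFold2 dimer inter-PAE was above 15.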", "units": {"folding stability dG unfold": "kcal/mol"}, "values": [
      {"sequence": "SAGGSAGGSAGGMEVKTVEDPKGLTVEVSPPVGTATTVYGDETVTHTLSPSATVALEPASAGGSAGGSAGGS [r10_637_JUSTAS]", "folding stability dG unfold": "0.435 ± 0.033"},
      {"sequence": "SAPIKIEIDVHQPPPGDYMIMVRIRPPGDGKEFPRMFPFPPDDAEKILENLLSQFPGYEIDDIEPMRYPSAG [r14_969_TrROS]", "folding stability dG unfold": "1.08 ± 0.15"},
      {"sequence": "SAGGSAGGSAGVPVVVRTVTGPEGGYVVVEFPNLKKVVLLPFTDGKPRPVVFDTDEVLKLVSAGGSAGGSAG [r3_426_TrMRF]", "folding stability dG unfold": "0.722 ± 0.083"},
      {"sequence": "SAGGWRLRIHIENPGNGRWITHTFPMPPGNIEKIADDMLEMLPGWKITGVEIVYEPGWITITARVKPKSAGG [r13_196_TrROS]", "folding stability dG unfold": "2.9 ± 0.035"},
      {"sequence": "SAGGSAMTTVTWTFPPSTSVEEAIEALKAQLEAERNEKIEIPSISVSTTGDTITVTLPIKIEPLPASAGGSA [r15_105_JUSTAS]", "folding stability dG unfold": "0.327 ± 0.22"},
      {"sequence": "SAGGKVVKTKEEAEKLVKEGKAEVVSVKKVKVPVNGKEKEVEVLEVKIKDKKTKKEKTIVLTKEQLKSAGGS [r16_271_TrROS_Hall]", "folding stability dG unfold": "-0.863 ± 0.27"},
      {"sequence": "SAPIDIDLERDPEPGRLKATVEFPWPNGWMHRMTFDLQWPRIKVEHYPFKDGEPEPQEIEIPIPANAKVSAG [r14_64_TrROS]", "folding stability dG unfold": "0.426 ± 0.24"},
      {"sequence": "SAGGSAGGSAGMYYVIKRPGKVEILPEEEVPKVIEEDPNVEVKKFDSEEEAKKALEELLKSAGGSAGGSAGG [r11_60_JUSTAS]", "folding stability dG unfold": "0.793 ± 0.073"},
      {"sequence": "SAGAAPGEPVVLVLPDGTVIPVIPRPDGSATLDAVAPSADGTYTVTASLPATGTTVTLELSAPPSFVAASAG [r5_394_TrMRF]", "folding stability dG unfold": "0.824 ± 0.052"},
      {"sequence": "SAMVVIKPEGDKIVVEITLPDGSTKVIELPEVEKIEIKGDTLIITDPKTGKKIIPENTTVSNPKIEPAKSAG [r14_83_JUSTAS]", "folding stability dG unfold": "-0.0623 ± 0.064"},
      {"sequence": "SAGGSAETIETVSSTFPVFSEDDKPVAVVKTYIFKFEDGELVLTEVFTPDGKPVAVKVASLDEFLNSAGGSA [r15_755_TrMRF]", "folding stability dG unfold": "1.7 ± 0.045"},
      {"sequence": "SAGKPESFSIEAPPIAPPEFPLGGSYRTLPNGEVLVLITLPDGTVLVLPSLDELRELRESGLPIDISPSSAG [r5_42_TrMRF]", "folding stability dG unfold": "1.17 ± 0.045"},
      {"sequence": "SAGGSAGGSAMTVRFGKPEELEKAEELAEEIAKAHPGKPIKVTVTKDPNNPDEYTVTITEESAGGSAGGSAG [r3_131_JUSTAS]", "folding stability dG unfold": "0.544 ± 0.09"},
      {"sequence": "SAGGSAGGMVYKIRDKETGKVYEVTIDEETNEITVYDVKTGKPVKTVNMTIEELKEAGYEVEPVSAGGSAGG [r6_831_TrROS_Hall]", "folding stability dG unfold": "3.27 ± 0.034"},
      {"sequence": "SAGGSAGGSGMTTTLTTEPRPDSTVVTTTTTTPTSVTTTTTVYDPDGNVVSTTTTTTPLPATSSAGGSAGGS [r12_710_JUSTAS]", "folding stability dG unfold": "0.257 ± 0.018"},
      {"sequence": "SAGGMPEPRPIPLTLTLLVDPEDPESVEEKLREFFEAFGADEITRVERELLPDGRALVTAEVLVNEPVSAGG [r13_222_TrMRF]", "folding stability dG unfold": "1.17 ± 0.043"},
      {"sequence": "SAGGLTWEEAREIAEEIANMEVPSPNGMPMKVKVDIEIDPPNGYFRVDVKVEMPGKPQKFPLEIPLKSAGGS [r16_812_TrROS]", "folding stability dG unfold": "0.536 ± 0.17"},
      {"sequence": "SASMTLTIPLPLKPGDRVVVEATHPLGYGFETEELPDGSVRLTLTVPTPDAPPATLHIRVYEPNTGKLASAG [r14_39_TrMRF]", "folding stability dG unfold": "3.24 ± 0.056"},
      {"sequence": "SAGGSMVEVIVIDKDGKEHKILIPPELKPEEVAEKVKKFLEDEGYEVESIEIEELPEGFSKVIVNASAGGSA [r2_148_TrMRF]", "folding stability dG unfold": "1.45 ± 0.18"},
      {"sequence": "SAGGSAGGDPPNVKIEPEIEPRRDPDGKPYVKIPYTIELPDGRPIQIDMWIDPKNGNQGPHIHISAGGSAGG [r6_298_TrROS]", "folding stability dG unfold": "0.486 ± 0.31"},
      {"sequence": "SAGGSAGGSAGGNGKKEITIFIKVPPGMPPNEIKDELKDLGLTNIEIERHNNWVMITFRSAGGSAGGSAGGS [r10_868_TrROS]", "folding stability dG unfold": "1.84 ± 0.099"},
      {"sequence": "SAGGSAGGSAIADEFAEKNPNFQVEVERHTFEMTQYDPDGGWRQHRMFMISITIVPPGDPLSAGGSAGGSAG [r3_358_TrROS]", "folding stability dG unfold": "4.07 ± 0.2"},
      {"sequence": "SAGGNIKVRREPRPNGQYRVKITIPDPDGKPIEIEYRMPPGMDSPEQAQKEAIEVVKEFAKKHNIKISAGGS [r8_464_TrROS]", "folding stability dG unfold": "0.733 ± 0.17"},
      {"sequence": "SAGGSASVTRMIQIPPGDPNMSIEEAIEKIKIYLPNGKPVTIEIDRIWPDPNRYFFMITIKDGKPVSAGGSA [r15_331_TrROS]", "folding stability dG unfold": "2.28 ± 0.13"},
      {"sequence": "SAMKITIEEVEVKEGDTVTIRIDASEEELENFLKELAEKLGAEVVEVEVKKNENGSLEVTVKVKEVKKPSAG [r14_655_TrROS_Hall]", "folding stability dG unfold": "0.476 ± 0.13"},
      {"sequence": "MKIKEVKVFPLPGENTIVILVTGEFDSFYIPETGKPIPSSAKITLIEVIKVPEDSDEAEVESSLLILPDAES [r1_147_TrMRF]", "folding stability dG unfold": "1.46 ± 0.067"},
      {"sequence": "SAGGSAGGSAGGELVLKIKVKPGEKVKLKLKLFDKNGKLVEEFEVEVEVVKEGDTLYIRLSAGGSAGGSAGG [r7_63_TrROS_Hall]", "folding stability dG unfold": "4.03 ± 0.052"},
      {"sequence": "SAGGSAGGSAGGSGNPVVRVFEFDDYIAVVTFNPGDGSVEVLSVGKVPPAAIPGSPELSSAGGSAGGSAGGS [r4_21_TrMRF]", "folding stability dG unfold": "1.16 ± 0.033"},
      {"sequence": "SAGGSAKGLKVTFSHPDVEILSVKSYPGLGLAEVEFRYGDKLYRALVRFEPDDGGIAEATVEPVPGSAGGSA [r15_297_TrMRF]", "folding stability dG unfold": "2.844 ± 0.026"},
      {"sequence": "SMPLIIIAKKNKDGTGTILIKKGDKVIEIEFEKNIKPEELKKKAIETALTLKKKTEELGIPIEIKEIIFESA [r9_751_TrMRF]", "folding stability dG unfold": "2.23 ± 0.077"},
      {"sequence": "SAGGSAGGSAGGDNTKTLVLVIKVDENVTPEEIKKKLKDLGFKNVKIEKVGNYAVVTVSSAGGSAGGSAGGS [r10_868_TrMRF]", "folding stability dG unfold": "3.149 ± 0.03"}
    ]},
    {"assay": "folding stability dG unfold (combined trypsin and chymotrypsin); higher = more stable", "summary_of_the_method": "as §1", "units": {"folding stability dG unfold": "kcal/mol"}, "values": [
      {"sequence": "SAGGSAGGSAGGMEVKTVEDPKGLTVEVSPPVGTATTVYGDETVTHTLSPSATVALEPASAGGSAGGSAGGS [r10_637_JUSTAS]", "folding stability dG unfold": "0.31 ± 0.1"},
      {"sequence": "SAPIKIEIDVHQPPPGDYMIMVRIRPPGDGKEFPRMFPFPPDDAEKILENLLSQFPGYEIDDIEPMRYPSAG [r14_969_TrROS]", "folding stability dG unfold": "1.29 ± 0.16"},
      {"sequence": "SAGGSAGGSAGVPVVVRTVTGPEGGYVVVEFPNLKKVVLLPFTDGKPRPVVFDTDEVLKLVSAGGSAGGSAG [r3_426_TrMRF]", "folding stability dG unfold": "0.825 ± 0.093"},
      {"sequence": "SAGGWRLRIHIENPGNGRWITHTFPMPPGNIEKIADDMLEMLPGWKITGVEIVYEPGWITITARVKPKSAGG [r13_196_TrROS]", "folding stability dG unfold": "2.74 ± 0.064"},
      {"sequence": "SAGGSAMTTVTWTFPPSTSVEEAIEALKAQLEAERNEKIEIPSISVSTTGDTITVTLPIKIEPLPASAGGSA [r15_105_JUSTAS]", "folding stability dG unfold": "1.26 ± 0.14"},
      {"sequence": "SAGGKVVKTKEEAEKLVKEGKAEVVSVKKVKVPVNGKEKEVEVLEVKIKDKKTKKEKTIVLTKEQLKSAGGS [r16_271_TrROS_Hall]", "folding stability dG unfold": "-0.894 ± 0.78"},
      {"sequence": "SAPIDIDLERDPEPGRLKATVEFPWPNGWMHRMTFDLQWPRIKVEHYPFKDGEPEPQEIEIPIPANAKVSAG [r14_64_TrROS]", "folding stability dG unfold": "0.338 ± 0.19"},
      {"sequence": "SAGGSAGGSAGMYYVIKRPGKVEILPEEEVPKVIEEDPNVEVKKFDSEEEAKKALEELLKSAGGSAGGSAGG [r11_60_JUSTAS]", "folding stability dG unfold": "0.704 ± 0.058"},
      {"sequence": "SAGAAPGEPVVLVLPDGTVIPVIPRPDGSATLDAVAPSADGTYTVTASLPATGTTVTLELSAPPSFVAASAG [r5_394_TrMRF]", "folding stability dG unfold": "1.16 ± 0.043"},
      {"sequence": "SAMVVIKPEGDKIVVEITLPDGSTKVIELPEVEKIEIKGDTLIITDPKTGKKIIPENTTVSNPKIEPAKSAG [r14_83_JUSTAS]", "folding stability dG unfold": "0.0698 ± 0.14"},
      {"sequence": "SAGGSAETIETVSSTFPVFSEDDKPVAVVKTYIFKFEDGELVLTEVFTPDGKPVAVKVASLDEFLNSAGGSA [r15_755_TrMRF]", "folding stability dG unfold": "1.56 ± 0.071"},
      {"sequence": "SAGKPESFSIEAPPIAPPEFPLGGSYRTLPNGEVLVLITLPDGTVLVLPSLDELRELRESGLPIDISPSSAG [r5_42_TrMRF]", "folding stability dG unfold": "1.07 ± 0.045"},
      {"sequence": "SAGGSAGGSAMTVRFGKPEELEKAEELAEEIAKAHPGKPIKVTVTKDPNNPDEYTVTITEESAGGSAGGSAG [r3_131_JUSTAS]", "folding stability dG unfold": "0.289 ± 0.14"},
      {"sequence": "SAGGSAGGMVYKIRDKETGKVYEVTIDEETNEITVYDVKTGKPVKTVNMTIEELKEAGYEVEPVSAGGSAGG [r6_831_TrROS_Hall]", "folding stability dG unfold": "3.4 ± 0.2"},
      {"sequence": "SAGGSAGGSGMTTTLTTEPRPDSTVVTTTTTTPTSVTTTTTVYDPDGNVVSTTTTTTPLPATSSAGGSAGGS [r12_710_JUSTAS]", "folding stability dG unfold": "1.11 ± 0.028"}
    ]}
  ]
}
